Assay results as given in patent US20040092720A1 (US Dept. of Health and Human Services, published 2004).
Read-outs that look alike come from different tables or passages of the source.

B1: Peptide B22 (peptide)
peptide: SLTTKAVLLVRKFQNS
B2: Peptide E59 (peptide)
peptide: SLTSDTLYMVRMAAYTDEGGKDGP

Tests used:
[1] = target: T1, recombinant human IL-6 (human, UniProt P05231 30-212, labeled with radioactive iodine); experiment: radioiodinated IL-6 on peptide array
T1 construct: Labeled probe in solution, added to wells that carry the synthetic peptides; also called IL-6 ligand; Interleukin-6
Protocol: Synthetic peptide arrays were constructed in 96-well microtiter plates in accordance with the method set forth in WO 91/02714 (Saxinger), and used to test the binding of recombinant human IL-6 that had been labeled with radioactive iodine (radiolabeling by standard methods). After incubating the radiolabeled IL-6 ligand in a well with each synthetic peptide, a washing step was performed to remove unbound label, and the relative level of radioactivity remaining in each well of the plate was evaluated to determine the relative affinity of each peptide for IL-6 ligand.

[2] = target: T1, recombinant human IL-6; experiment: radioiodinated IL-6 on peptide array; remark: listed apart in the source

Row | Binder | Counts/minute bound [1] [counts/minute] | Counts/minute bound [2] [counts/minute]
1 | B1 | 12600 | –
2 | B2 | – | 1270
